{
  "source": "patent EP2857035B1",
  "key": {"[1]": {"target": "HLA-B35 (human)", "experiment": "assembly assay, T2-B35 cell lysate, W6/32 IP, IEF gel"}, "[2]": {"target": "HLA-B7 (human)", "experiment": "assembly assay (HLA-B7 stabilisation)"}},
  "data": [
    {"binder": "YPLHEQHQM (modifications not checked)", "note": "[C24, EBNA3A458-466]", "values": [
      {"measurement": "C50", "setting": "[1]", "value": 0.8, "unit": "µM"}
    ]},
    {"binder": "QPRAPIRPI (modifications not checked)", "note": "[C6]", "values": [
      {"measurement": "C50", "setting": "[2]", "value": 0.1, "unit": "µM"}
    ]},
    {"binder": "RPPIFIRRL (modifications not checked)", "note": "[C7]", "values": [
      {"measurement": "C50", "setting": "[2]", "value": 0.5, "unit": "µM"}
    ]}
  ]
}
